Test results from patent publication US20230242902A1, “A HIGHLY ERROR-PRONE […] R[…] FOR TARGETED CONTINUOUS EVOLUTION IN VIVO” (The Regents of the University of California, priority 2017, published 2023).
Positions count from the first letter of the chain named. Names and notes keep the numbering of the source.

B1: E411R: TP-DNAP1 variant (protein)
chain: MDYKDKALNDLRNVYADFDSLPLDFRQILIKDRATLLQKEDVEKKILERQEDAKKYAEYLKQSEIPERISLPNIKRHKGVSISFEETSEDMVLEPRPFIFDGLNIRCFRRETIFSLKNKILNMVKESSSFKNVSRQSVSFMYFKIFNKGKVIASTKSVNIYEDKIDERLEDLCNNFDDVLKKIIDVTYGYESLFVSETYSYVIFYAKSIYFPQPRCVNNWGNNIPNILTFDSFKLFTANKNNVSCIKQCSRFLWQKDFNTLEEMIEYKNGNICIVTPQLHINDVRDIKSFNDIRLYSESPIKTFSVIDNTITYLFYFKEHLGVIFNITKSRHDRRVTKFSPLSKFSDVKNITVCFDIESYFDPEKESNQVNIPFICCASIIYNKVIGNIVDFEGRDCVAQMIEYVVDICGRLNISSVELIAHNGGGYDFHYILSSMYNPAAIKNILIRNNSFISFNFAHDGVKFSVKDSYSFLLCSLANASKAFLNEETFKKTDFPHHDLKTADDLYKVYKEWSSVNTEINHVVEKEKLLITSEHIVNFTKNDKSKTLIEWSKDYCRNDVLVLSKVWLEFKNAVEDIFNCELVDQTMTLAGLSYKLFQANMPFDVELRHPNKEDYFNMREALIGGRCISVNGIYKDVLCLDVKSLYPASMAFYDQPYGSFKRVSSRPKDELGIYYVRVTPNRNNKSNFFPIRSHNKITYNNFEESTYIAWYTNVDIDIGLSEGHNIEYIPFDSYGNIGYSWSKKGKIFEKYIKDVLYKLKIKYEKQNNKVKRNVIKIIMNSLWGKFAQKWVNFEYFIKSEDDIDFESEEAYKIWDTDFMLIKKIKESTYSSKPIQNGVFTLSWARYHMKSIWDAGAKEGAECIYSDTDSIFVHKEHFKKNAKFMLNGLKVPIIGSEVGQLELECEFDKLLCAGKKQYMGFYTYFQDGKPCIKEKKRFKGIPSNYIIPELYAHLLSGADKEAKIQFLKFRREWGSVKGYIENKTVKAT
B2: G426T: TP-DNAP1 variant (protein)
chain: B1 chain with R411E, G426T
B3: E411K: TP-DNAP1 variant (protein)
chain: B1 chain with R411K
B4: N413H: TP-DNAP1 variant (protein)
chain: B1 chain with R411E, N413H
B5: E411S: TP-DNAP1 variant (protein)
chain: B1 chain with R411S
B6: L412V: TP-DNAP1 variant (protein)
chain: B1 chain with R411E, L412V
B7: N611Q: TP-DNAP1 variant (protein)
chain: B1 chain with R411E, N611Q
B8: K612S: TP-DNAP1 variant (protein)
chain: B1 chain with R411E, K612S
B9: K612V: TP-DNAP1 variant (protein)
chain: B1 chain with R411E, K612V
B10: D669G, T698M: TP-DNAP1 variant (protein)
chain: B1 chain with R411E, D669G, T698M
B11: E411D: TP-DNAP1 variant (protein)
chain: B1 chain with R411D
B12: K612A: TP-DNAP1 variant (protein)
chain: B1 chain with R411E, K612A
B13: F616E: TP-DNAP1 variant (protein)
chain: B1 chain with R411E, F616E
B14: E620R: TP-DNAP1 variant (protein)
chain: B1 chain with R411E, E620R
B15: N413E: TP-DNAP1 variant (protein)
chain: B1 chain with R411E, N413E
B16: R662C: TP-DNAP1 variant (protein)
chain: B1 chain with R411E, R662C
B17: E411G: TP-DNAP1 variant (protein)
chain: B1 chain with R411G
B18: E613D: TP-DNAP1 variant (protein)
chain: B1 chain with R411E, E613D
B19: K612Q: TP-DNAP1 variant (protein)
chain: B1 chain with R411E, K612Q
B20: D460G: TP-DNAP1 variant (protein)
chain: B1 chain with R411E, D460G
B21: S415V: TP-DNAP1 variant (protein)
chain: B1 chain with R411E, S415V
B22: N291M: TP-DNAP1 variant (protein)
chain: B1 chain with N291M, R411E
B23: E411N: TP-DNAP1 variant (protein)
chain: B1 chain with R411N
B24: R662A: TP-DNAP1 variant (protein)
chain: B1 chain with R411E, R662A
B25: N291K: TP-DNAP1 variant (protein)
chain: B1 chain with N291K, R411E
B26: G461K: TP-DNAP1 variant (protein)
chain: B1 chain with R411E, G461K
B27: N413T: TP-DNAP1 variant (protein)
chain: B1 chain with R411E, N413T
B28: N291W: TP-DNAP1 variant (protein)
chain: B1 chain with N291W, R411E
B29: I414F: TP-DNAP1 variant (protein)
chain: B1 chain with R411E, I414F
B30: N611P, V897V: TP-DNAP1 variant (protein)
chain: B1 chain with R411E, N611P
B31: E411L: TP-DNAP1 variant (protein)
chain: B1 chain with R411L

System: p1
Assay: p1 copy number by p1-encoded mKate2 fluorescence
Assay type: cell-based, S. cerevisiae
Conditions: OR-Y24, measured in triplicate
Protocol: A calibration curve was established to correlate p1 copy number, determined via quantitative PCR (qPCR), with fluorescence of p1-encoded mKate2 (Table 1). Five TP-DNAP1 variants representing a wide range of copy numbers were transformed into ORY24 and passaged until w.t. p1 was displaced. The five OR-Y24 strains were grown to saturation, diluted 1:10,000 to mimic p1 fluctuation tests, and grown in triplicate 100 μL cultures and duplicate 40 mL cultures. 100 μL saturated cultures were subject to fluorescence measurement of mKate2 (ex/em=561 nm/620 nm, bandwidth=15 nm) on a flow cytometer (Invitrogen Attune NxT). Whole-cell DNA extracts were prepared from 40 mL cultures and used as templates for qPCR measurement of p1-encoded leu2 (Q180*), as described previously (Ravikumar et al., 2014). p1-encoded LEU2 was PCR amplified with qPCR-Leu2F and qPCR Leu2R; and genomic LEU3 was PCR amplified with qPCR-Leu3F and qPCR-Leu3R using SyBR Green (Fisher Scientific) master mix.
To assay p1 copy number for large-scale p1 fluctuation tests, additional replicates of OR-Y24 strains were grown from the 1:10,000 dilution in triplicate and saturated cultures were subject to fluorescence measurement via flow cytometry. Fluorescence measurements were converted to copy number with the linear calibration curve.
To assay relative p1 copy number for small-scale p1 fluctuation tests, an additional 200 μL culture of OR-Y24 strains were grown from the 1:10,000 dilution. 200 μL saturated cultures were subject to an OD600 measurement and fluorescence measurement of mKate2 (ex/em=588 nm/633 nm), using a microplate reader (TECAN Infinite M200 PRO). A linear relationship was assumed between p1 copy number and OD600-normalized mKate2 fluorescence. Copy numbers were calculated from normalization to a w.t. TP-DNAP1 control.
For a few large-scale p1 fluctuation tests, p1 copy number was assayed by the method of small scale p1 fluctuation tests (i.e. microplate reader measurement). For these experiments, mutant TP-DNAP1 p1 copy numbers were calculated by normalization to a w.t. TP-DNAP1 control. The copy number of this control was assumed to be the average w.t. TP-DNAP1 copy number from all large-scale p1 fluctuation tests that used flow cytometry measurements.
TP-DNAP1 plasmids were isolated from these strains and subject to Sanger sequencing. 210 unique variants were identified and the corresponding plasmids were re-transformed into OR-Y24. Transformed strains were passaged in SC-UH until w.t. p1 was displaced, and subject to p1 copy number measurement in triplicate. Four high copy variants were directly subject to qPCR measurements for validation. To test the suppressor activity of the G410H mutation, which yields increased p1 copy number, this amino acid change was added to several low-activity TP-DNAP1 variants. p1 copy number was similarly assayed for these strains.

Molecule | Mean fold-increase over w.t. (p1 copy number) [fold]
B1 | 2.07
B2 | 1.22
B3 | 2.39
B4 | 2.2
B5 | 1.52
B6 | 2.21
B7 | 1.92
B8 | 1.75
B9 | 1.85
B10 | 1.65
B11 | 2.32
B12 | 1.94
B13 | 2.2
B14 | 2.29
B15 | 2.62
B16 | 1.7

Molecule | Mean fold-increase over w.t. (p1 copy number) [fold]
B17 | 1.54
B18 | 1.82
B19 | 2.04
B20 | 1.63
B21 | 1.44
B22 | 2.28
B23 | 1.9
B24 | 1.75
B25 | 1.66
B26 | 2.15
B27 | 1.76
B28 | 2.26
B29 | 1.29
B30 | 2.04
B31 | 2.22
